Experimental data taken from the RNAGym collection of RNA variant scans (doi:10.1073/pnas.2313332121).
Fewer inactive variants are shown than the library holds.

B1: TPR 5TU (parent)
chain: GGAUCUUCUCGAUCUAACAAAAAAGACAAAUCUGCCACAAAGCUUGAGAGCAUCUUCGGAUGCAGAGGCGGCAGCCUUCGGUGGCGCGAUAGCGCCAACGUUCUCAACUAUGACACGCAAAACGCGUGCUCCGUUGAAUGGAGUUUAUCAUG

Variants of: B1
Experiment: polymerase ribozyme fitness, log enrichment relative to wild type (log ratio); higher = more active; in vitro selection for triplet polymerase activity
Method in brief: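 Mutant libraries of each subunit of a heterodimeric triplet polymerase ribozyme were built by PCR and transcribed. Each library went through one round of in vitro selection in triplicate: annealing with biotinylated primer, partner subunit and triplets, frozen incubation at −7 °C, gel excision of extended constructs, streptavidin-bead capture and RT-PCR. Input and output libraries were Illumina-sequenced; only genotypes with ≥10 input reads and ≥1 read per output were kept. Fitness is log2(genotype enrichment/wild-type enrichment), using inverse-variance-weighted replicate averages.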

Variant	polymerase ribozyme fitness (log ratio)
GGAUCUUCUCGAUCUAACAAAUAAGACAAAUCUGCCACAAAGCUUGAGAGCAUCUUCGGAUGUAGAGGCGGCAGCCUUCGGUGGCGCGAUAGCGCCAACGUUCUCAACUAUGACACGCAAAACGCGUGCUCCGUUGAAUGGAGUUUAUCAUG [A22U C63U]	0.542
GGAUCUUCACGAUCUAACAAUAAAGACAAAUCUGCCACAAAGCUUGAGAGCAUCUUCGGAUGCAGAGGCGGCAGCCUUCGGUGGCGCGAUAGCGCCAACGUUCUCAACUAUGACACGCAAAACGCGUGCUCCGUUGAAUGGAGUUUAUCAUG [U9A A21U]	-3.81
GGAUCUUCUCGAUCUAACAAAAAAGUCAAAUCUGCCACAGCGCUUGAGGGUCUCUUCGGAUGCAGAGGCGGCAGCCUUCGGUGGCGCGAAAACGUCCACGUUCUCAACUAUGACACGAAAAACGCGUGCUCCGUUGGAUGGAGUUUAUCACG [A26U A40G A41C A49G C51U A52C U90A G92A C95U A97C C118A A137G U151C]	≤ -4.2
GGAUCUUCUCGAUCUAACAAAUAAGACAAGUCUGCCACAAAGCUUGAGAGCAUCUUCGGAUGCAGAGGCGGCAGCCUUCGGUGGGGCGAUAGCGCCAACGUUCAAAACUAGGACACGCAAAACGCGUGCUCCGUUGAAUGGAGUUUAUCAUG [A22U A30G C85G U104A C105A U111G]	≤ -4.2
GGAUCUUCUCGAUCUAACAAAAAAGACAAAUCUGCCACAAAGCUUGAGAGCAUCUUCGGAUGCAGAGGCGGCAGCCUUCGGUGGCGCGAUAGCGCCAACGUUCUCAACUAAGACACGCAAAACACGUGCUCCGUCGAAUGGAGUUUAUCAUG [U111A G124A U135C]	-3.76
GGACUUUCUCGAUCUAACAAAACAGACAAAUCUGCCACAAAGCUUGCGAGCAUCUUCGGAUGCAGAGGCGGCAGCCUUAGGUGGGGCGACAGCGCCAACGUUCUCAACUAUGACACUCAAAACGCGUGCUCCGUUGAAUGGAGUUUAUCAUU [U4C C5U A23C A47C C79A C85G U90C G117U G152U]	≤ -4.2
GGAUCUUCUCGAUCUAACAAAAAAGACAAAUCUGCCACAAAGCUUGGGAGCAUCUUCGGAUGCAGAGGCGGCAGCCUUCGGUGGCGCGAUAGCGCCAACGUUCUCAACUAUGACACGCAAAACGCGUGCUCCGUUGAAUGGAGUUUUUCAUG [A47G A147U]	0.466
GGAUCUUCUCGAUCUUACAAAAAAGACAAAUCUGCCACAAAGCUUGAGAGCAUCUUCGGAUGCAGAGGCGGCAGCCUUCGGUGGCGUGAUAGCGCCAACGUUCUCAACUAUGACACGCAAAACGCGUGCUCCGUUGAAUGGAGUUUAUCAUG [A16U C87U]	-2.65
GGAUCUUCUCGAUCUAACAAAAAAGACAAAUCUCCCACAAAGCUUGAGAGCAUCUUCGGAUGCAGAGGCGGCAGCCUUCGGUGGCGUGAUAGCGCCAACGUUCUCAACUAUGACACGCAAAACGCGUGCUCCGUUGAAUGGAGUUUAUCAUG [G34C C87U]	-3.33
GGAUCUUCUAGAUCUAACAAGAAAGACAGAUCUGCCACAAAGCUUGAGAGUGUCUUCGGAUGCAGAGGCGGCAGCCUCCGGUGGCGCGAUAGCGACAACGUUCUCAACUAUGACACGCAAAUCGCGUGCUCCGUUGAAUGGAGUUGAUCAUG [C10A A21G A29G C51U A52G U78C C95A A122U U146G]	≤ -4.2
GGAUGUUCUCGAUCUAACAAAAAAGACAAAUCUGCCACAAAGCUUGAGAGCGUCUUCGGAUGCAGAGGCGGCAGCCUUCAGUGGCGCGAUAGCGCCAACGUUCUCAACUAUGACACGCAAAACGCGUGCUCCGUUGAAUGGAGUUUAUCAUG [C5G A52G G80A]	-1.81
GGAUCUUCUCGAUCUAACAAAAAAGACAAAUCUGCCACAAAGCUUGAGAGCAUCUUCGUCUGCAGAGGCGGCAGCCUUCGGUAGCGCGAUAGCGCCAACGUUCUCAACUAUGACAUGGAAAACGCGUGCUCCGUUGAAUGGAGUUUAUCAUG [G59U A60C G83A C116U C118G]	-2.5
GGAUCUUCUCGAUCUAACAAAAAAGACAAAUCUGCCACAAAGCUUGAGAGCAUUUACAGAUGCAGAGGCGGCAGCCUUCGGUGGUGCGAUAGCGACAACGUUCUCAACUAUGACACGCAAAACGCGUGCUCCGUUGAAUGGAGUUUAUCAUG [C54U U56A G58A C85U C95A]	-1.2
GGAUCUUCUCGAUCUAACAAAAAAGACAAAUCUGCCACAAAGCUUGAGAGCAUCUUCGGAUGCAGAGACGGCAGCCUUCGGUGGCGCGAUAGAGCCAACGUUCUCAAAUAUGACACGCAAAACGCGUGCUCCGUUGAAUGGAUUUUAUCAUG [G68A C93A C108A G143U]	≤ -4.2
GGAUCUUCUCGAUCUAACAAAAAAGACAAAUCUGUCACAAAGCUUGAGAGCAUCUUCGGAAGCAGAGGCGGCAGCCUUCGGUGGCACGAUAGCGCCAACGUUCUCAACUAUGACACGCAAAACGGGUGCUCCGUUGAAUGUAGUUUAUCAUG [C35U U61A G86A C125G G141U]	≤ -4.2
GGAUCUUUUCGAUCUAACCAAAAAGACAAAUCGGCCACAAAGCUUGAGAGCAACAUCGGAUGCAGAGGCGGCAGCCUUCGGUGGCGCGAUAGCGCGAACGUUCUCAAUUAUGACACGCAAAACGCGUGCUCCGUUGAAUGGAGUUUAUCAUG [C8U A19C U33G U53A U55A C96G C108U]	-3.8
GGAUCUUCUCGAUCUAACAAAAAAGACAAAUCUGCCACAAAGCUUGAGCGCAUCUUCGGAUGCUGAUACGACAGCCUUCGGUGGCGCGAUAGCGCCAACGUUCUCAACUAUGACACGCAAAACGCGUGCUCCGUUGAAUGGAGUUUAUCAUG [A49C A64U G67U G68A G71A]	≤ -4.2
GGAUCUUCUCGAUCGAACAAAAAAGACAAAUCUGCCACAAAGCUUGAGAGCAACUUCGGAUGCAGAGGCGGCAGCCUUCGGUGGCGCGAUAGCGCCAACGUUCUCAACUAUGACACGCAAAACGCGUGCUCCGUUGAAUGGAGUUUAUCAUG [U15G U53A]	-0.774
GGAUCUUCUCGAACUAACAAAAGAGAUCAAUCUGCCACAAAGCUUGAGAGCAUUUUCGGAUGCAGAGGCGGCAGCCUUCGGUGGUGCGAUAGUGCCAACGUUCUCAACUAUGACCGGCAAGACGCGUGCUCCGUUGAAUGGAGUUUAUCCUG [U13A A23G C27U A28C C54U C85U C93U A115C C116G A121G A150C]	-3.82

Variant	polymerase ribozyme fitness (log ratio)
GGAUCUUCUCGAUCUAACAAAAAAGACAAAUCUGCCACAAGGCUUGAGAGCAUCUUCGGAUGCAGAGGCGGCAGCCUUCGGUGGAGCGAUAGCGCCAACGUUCUCAACUAUGACACGCAAAACGCGUGCGCCGUUGAAUGGAUUUUGUCAUG [A41G C85A U130G G143U A147G]	≤ -4.2
GGAUCUUCUCGAUCUAACAAAAAAGACAAAUCUGCCACAAAGCUUGAGAGCAUCUUCGGAUGCAGAGGCGGCAGCCUUCGGUGGCGCGAUAGCGCGAACGUUCUCAACUAUGACACGCACAACGCGUGCUCCGUUGAAUGGAGUUUAUCAUG [C96G A120C]	0.168
GGAUCUUCUCGAUCUAACAAAAAAGACAAAUCUGCCACAAAGCUUGAGAGCAUCUUCGGAUGCAGAGGCGGCAGCAUUCGGUGGCACGAUAGCGCCAACGUUCUCAACUAUGACACGCAAAACGCGUGCUCCGUUGAAUGGAGUUUAUCAUG [C76A G86A]	-2.06
GGAUCUUCUCGAUCUGACUAAAAAGACAAAUCUGCCACAAAGCUUGAGAGCAUCUUCGGAUGCAGAGGCGGCAGCCUUCGGUGGCGCGAUAGAGCCAACGUUCUCAACUAUGACACGCAAAACGCGUGCUCCGUUGAAUGGAGUUUAUCAUG [A16G A19U C93A]	-3.75
GGCUCUUCUCGAUCUAACAAAAAAGACAAAUCUGCCACAAAGCUUGAGAGCAUCUUCGGAUGCAGAGGCGGCAGCCUUCGGUGGUGCGAUAGCGCCAACGUUCUCAACUAUGACACGCAAAACGCGUGCUCCGUUCAAUGGAGUUUAUCAUG [A3C C85U G136C]	-3.76
GGAUCUUCUCGAUCUAACAAUAAAGACAAAUAUGCCACAAAGCUUGAGAGCAUCUUCCGAUGCAGAGGCGGCAGCCUUCGGUGGCGCGAUAGCGCCAACGUUCUCAACUAUGACACGCAAAACGCGUGCUCCGUUGAAUGGAGUUUAUCAUG [A21U C32A G58C]	≤ -4.2
GGAUCUUCUCGAUCUAACAAAAAAGACAAAUCUGCCACAAAGCUUGAGAGCAUUUUCGGAUGCAGAGGCGGCAGCCUUCGGUGGCGCGAUAGCGCCAACGUUCUCAACUAUGACACGCAAAACGCGUGCUCCGUUGAAUGGAGUUUACCAUG [C54U U148C]	-1.84
GGAUCUUCUCGAUCUAACAAAAAAGACAAAUCUGCCACAAAGCUUGAGAACAUCUUCGGAUGCAGAGGCGGCAGCCUUCGGUGGCGCGAUAGCGCCAACGUUCUCAACUAUGACACGCAAAACGCGUGCUCCGUUUAAUGGAGUUUAUCAUG [G50A G136U]	-2.96
GGAUCUUCUCGAUCUAACAAAAAAGACAAAUCUGCCACAAAGCUUGAGAGCAACAUCGGAUGCAGAGGCGGCAGCCUUCGGUGGCGCGAUAGCGACAGCGUUCUCAACUAUGACACGCAAAAUGCGUGCUCCGUUGAAUGGACUUUAUCAUG [U53A U55A C95A A98G C123U G143C]	-3.34
GGAUCUUCUCGAUCUAACAAAAAAGACAAAUCUGCCACAAAGCUUGAGAGCAUUUACGGAUGCAGAGGCGGCAGCCUUCGGUGGCGCGAUAGCGCCAACGUUCUCAACUAUGACACGCAAAACGCGUGCUCCCUUGAAUGGAGUUUAUCAUG [C54U U56A G133C]	-1.7
GGAUCUUCUCGAUCUCACAAAAAAGACAAAUCUGCCACAAAGCUUGAGAGCAUCUUCGGAUGCAGAGGCGGCAGCCUUCGGUGGCGCGAUAGCGCAAACGUUCUCAACCAUGACACGCAAAACGCGUGCUCCGUUGAAUGGAGUUUAACAUG [A16C C96A U109C U148A]	≤ -4.2
GGAUCUUCUCGAUCUAAGAAAAAAGACAAAUCUGCCACAAAGCUUGAGAGCAUCAUCGGAUGCAGAGGCGGCAGCCUUCGGUGGCGCGAUAGCGCCAACGUUCUCAACUAUGACACGCAAAACGCGUGCUCCGUUGAAUGGAGUUUAUCAUG [C18G U55A]	-0.923
GGAUCUUCUCGAUCUAACAAAAAAGACAAAUCUGCCACAAAGCUUGAGAGCGUCUUCGGAUGCAGAGGCGGCAGCCUUCGGUGGCGCGAUAGCGCCAACUUUCUCAACUAUGACACGCAAAACGCGUGCUCCGUUGAAUGGAGUUUAUCAUG [A52G G100U]	-3.98
GGAACAUCUCGAUCUAUCAAAAAAGACAAUUCUGCCACAAAGCUUGAGAGCAUCUUCGGAUGCAGAGGCGGCAGCCUUCGGUGGCGCGAUAGCGCCAACGUUCUUAACUAUGACACGCAAAACGCGUGCUCCGGUGAAUGGAGUUUAUCAUG [U4A U6A A17U A30U C105U U134G]	≤ -4.2
GGAUCUUCUCGAUCUAACAAAAAAGACAAAUCUGCCAAAAAGCUUGAGAGCAUCUUCGGAUGCAGAGGCGGCAGCCUUCGGAGUCGCGAUAGCGCCAACGUUCUCAACUAUGACACGCACAACGCGUGCUCCGUUGAAUGGAGUUUAUCAUG [C38A U82A G84U A120C]	-1.37
GGAUCUUCUCGAUCUAACAAAAAAGACAAAUCUGCCACAAAGCUUGAGAGCAUCUUCGGAUGCAGAGGCGGCAGCAUUCGGUGGAGCGAUAACUCCAACGUUAUCAAUUAUGACACGCAAACCGCGUGCUCCGUUGAAUGGAGUUUAUCAUG [C76A C85A G92A G94U C103A C108U A122C]	≤ -4.2
GGAUCUUCUCGAUCUAACAAAAAAGACAAAUCUGACACAAAGCUUGAGAGCAUCUUCGGAUCCAGAGGCGGCAGCCUUCGGUGGCGCGAUAGCGCCAACGUUCUCAACGAUGACACGCAAAUCGCGUGCUCCGUUGAAUGGCGUUUAUCAUG [C35A G62C U109G A122U A142C]	≤ -4.2
GGAUCUUCUCGAUCUAACAAAAAAGACAAAUCUGCCACUAAGCUUGAGAGCGUCUUCGGAUGCAGAGGCGGCAGCCUUGGGUGCCGCGAUAGCGCCAACGUUCUCAAUUAUGACACGCAAAACGCGUGCUCCGUUGAAUGGAGUUUAUCAUG [A39U A52G C79G G84C C108U]	≤ -4.2
GGAUCUUCUCGAUCUAACAAAAAAGACAAAUCUGCCACAAAGCUUGAGAGCAUCUUCGGAUGCAGAGGCGGCAGCCUUCGGUAGCGCGGUAGCGCCAACGUUCUCAACGAUGACACGCAAAACGCGUGCGCGGUUGAAUGGAGUUUAUCAUG [G83A A89G U109G U130G C132G]	≤ -4.2
